In patent US20230009582A1 (MEMO THERAPEUTICS, published 2023):
One block for each binder: values may come before it.

Experiments:
[1] = molecular target: T1, Siglec-9-Fc (in-house production); assay: blocking assay: Calcein-AM labelled sialic acid-displaying A549 tumour cells binding to plate-captured Siglec-9-Fc, antibody titrated, n=3
T1 construct: The entry holds the Siglec-9 part and the Fc together; also called Siglec-9-Fc protein
Method: FIG. 4: Titration of monoclonal antibodies (68D4 and 224B1; comparative monoclonal antibodies mAbA and 5C6 & negative control 53C3) to determine blocking the binding of sialic acid-displaying A549 tumour cells to Siglec-9. Tumour cells were fluorescently-loaded with Calcein-AM in advance to the binding experiment and binding was determined by the released fluorescence upon cell lysis. Fluorescence released in the absence of antibody was set to 100% binding. Data was fitted by three-parameter analysis in GraphPad Prism (GraphPad Software); n=3.
To analyse if anti-Siglec-9 antibodies recognize the ligand-binding domain and block the binding of Siglec-9 to its ligands, sialic acids, we performed a cell-based assay where the binding of sialic-acid expressing A549 tumour cells to Siglec-9-Fc is evaluated in ELISA. ELISA-plates were coated with 3 μg/ml Protein-A (Thermo Fisher Scientific) overnight at 4° C. Plates were blocked with PBS, 1% BSA for 1 h, and incubated with 5 μg/ml Siglec-9-Fc for 1 h at RT. Anti-Siglec-9 antibodies at different concentrations (starting at 8 μg/ml or 53 nM); were mixed 1:1 with Calcein-AM (Thermo Fisher Scientific) labeled A549 tumour cells. The mixture was added to the ELISA plate and incubated for 1 h at 4° C. After washing of the plate, cells that were bound to the plate were lysed with PBS, 1% Triton-X 100 and released fluorescence was measured at an excitation of 485 nm and emission of 535 nm with a Synergy H1 (BioTek). Data were fitted by three-parameter analysis in GraphPad Prism (GraphPad Software).

[2] = molecular target: T2, Siglec-5-Fc (R&D systems) (UniProt O15389 17-434, limits assumed); assay: ELISA, coated Siglec-5-Fc 1 µg/ml, single antibody concentration, anti-human Fab detection, Abs 450 nm, n=3
T2 construct: Bought reagent; not shown: Fc part of the bought fusion; not described
T2 sequence (looked up): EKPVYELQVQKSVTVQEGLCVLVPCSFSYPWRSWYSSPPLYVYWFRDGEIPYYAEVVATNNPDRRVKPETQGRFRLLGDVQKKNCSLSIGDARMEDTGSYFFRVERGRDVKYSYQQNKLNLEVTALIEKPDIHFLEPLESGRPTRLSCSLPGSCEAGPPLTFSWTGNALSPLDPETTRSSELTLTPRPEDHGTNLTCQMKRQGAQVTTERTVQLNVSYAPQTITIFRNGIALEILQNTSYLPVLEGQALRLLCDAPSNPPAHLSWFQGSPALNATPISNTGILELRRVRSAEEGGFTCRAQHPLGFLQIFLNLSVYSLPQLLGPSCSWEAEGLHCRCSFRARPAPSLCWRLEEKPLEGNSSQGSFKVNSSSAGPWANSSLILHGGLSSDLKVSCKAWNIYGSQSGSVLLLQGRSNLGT
Method: Specificity towards Siglec-5, Siglec-7, Siglec-8, Siglec-15 and Siglec-9 was assayed in enzyme-linked immunosorbent assay (ELISA) using 96 well half-area ELISA plates (Corning). Siglec-5-Fc (R&D systems), Siglec-7-Fc (in-house production, Siglec-7-Fc protein used had the following amino acid sequence:
(SEQ ID NO: 59)) […] […] […] […] […] […] […] […] […] […] […] […], Siglec-8-Fc (R&D systems), Siglec-15- Fc (R&D systems) and Siglec-9-Fc (in-house production, SEQ ID NO: 11) were coated at 1 μg/ml in 50 mM carbonate-bicarbonate buffer pH 9.6 for 15-20 hours at 4° C.
Antigens were washed away (Tecan Hydrospeed) and plates were blocked with 5% skimmed milk in phosphate-buffered saline (PBS). After washing the plates, antibodies were added at 5 μg/ml (33 nM) in 0.5% milk PBS in triplicates. Plates with antibodies were incubated for 1 hour at room temperature. Plates were washed and bound antibodies were detected by horseradish peroxidase (HRP)-labeled polyclonal anti-rabbit IgG antibody (Biolegend) or anti-human Fab fragment for mAbA (Sigma Aldrich). 3,3′,5,5′-Tetramethylbenzidine (TMB; Sigma Aldrich) development was stopped by addition of sulfuric acid and absorbance was detected at 450 nm (Tecan, CM […] MONO 200).

[3] = molecular target: Siglec-9 protein (construct not stated; antigen of Examples 3 and 4) (human, UniProt Q9Y336 18-348, limits assumed); assay: SPR (Carterra LSA), antibody coupled to HC2000M chip, antigen at 20, 100 and 500 nM
Method: KD determination was performed by SPR by individually coating the antibodies to HC2000M chips via sulpho-NHS/EDC coupling chemistry. Chips were afterwards blocked with ethanolamine. Antigen was applied in one of the three different concentrations (20 nM, 100 nM and 500 nM) with a contact time of 240 s, followed by a dissociation phase of 120 s. After each antigen incubation, the bound antigen was removed from the antibodies with 10 mM glycine at pH 2.0. All kinetic parameters (kₒₙ, koff and KD) were determined using a kinetic fitting program (LSA Kinetics, Carterra).

[4] = molecular target: T3, Siglec-9 expressed on cells (human, UniProt Q9Y336 18-463); assay: flow cytometry on human CD14+ monocytes (PBMC), mean RFU of the secondary antibody, three-parameter fit
T3 construct: also called monocyte-expressed Siglec-9
Method: (§1) Human ex vivo PBMC were stained with fluorescence-labeled (allophycocyanin, APC) antibody to the monocyte marker CD14 (Biolegend) in assay buffer (0.5% (v/v) heat-inactivated fetal bovine serum (Gibco), 2 mM EDTA in phosphate-buffered saline). Subsequently, cells were incubated with antibodies under evaluation at various concentrations (67 nM-0.38 pM). After a washing step cells were incubated with fluorescence-labeled (Brilliant Violet 421™) secondary antibody against human IgG (mAbA) or rabbit IgG (all other monoclonal antibodies under evaluation; both secondary antibodies from Biolegend).
(§2) Binding of Siglec-9-specific antibodies to monocytes (CD14-positive life cells) was analysed with a CytoFLEX flow cytometer (Beckham Coulter's). The mean fluorescence intensity of the secondary antibody staining in the CD14-positive population at each dilution was determined using Flow Jo software (BD). Datapoints generated by this analysis were fitted and EC50 values were determined by three-parameter analysis in GraphPad Prism (GraphPad Software)

[5] = molecular target: T3, Siglec-9 expressed on cells; assay: flow cytometry on human CD14+ monocytes in PBMC
Method: as §1, §2

Chain of Siglec-9 protein (construct not stated; antigen of Examples 3 and 4) (Q9Y336 18-348 limits assumed): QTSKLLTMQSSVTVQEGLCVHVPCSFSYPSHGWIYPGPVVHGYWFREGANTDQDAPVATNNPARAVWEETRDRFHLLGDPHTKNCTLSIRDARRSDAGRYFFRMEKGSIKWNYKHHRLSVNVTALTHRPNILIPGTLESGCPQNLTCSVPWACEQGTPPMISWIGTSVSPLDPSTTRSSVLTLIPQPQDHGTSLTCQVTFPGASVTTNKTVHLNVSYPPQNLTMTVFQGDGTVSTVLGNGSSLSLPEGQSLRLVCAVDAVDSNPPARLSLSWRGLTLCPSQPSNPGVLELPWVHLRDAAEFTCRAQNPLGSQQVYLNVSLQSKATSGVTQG
T1 sequence (chain, as listed by the source limits assumed): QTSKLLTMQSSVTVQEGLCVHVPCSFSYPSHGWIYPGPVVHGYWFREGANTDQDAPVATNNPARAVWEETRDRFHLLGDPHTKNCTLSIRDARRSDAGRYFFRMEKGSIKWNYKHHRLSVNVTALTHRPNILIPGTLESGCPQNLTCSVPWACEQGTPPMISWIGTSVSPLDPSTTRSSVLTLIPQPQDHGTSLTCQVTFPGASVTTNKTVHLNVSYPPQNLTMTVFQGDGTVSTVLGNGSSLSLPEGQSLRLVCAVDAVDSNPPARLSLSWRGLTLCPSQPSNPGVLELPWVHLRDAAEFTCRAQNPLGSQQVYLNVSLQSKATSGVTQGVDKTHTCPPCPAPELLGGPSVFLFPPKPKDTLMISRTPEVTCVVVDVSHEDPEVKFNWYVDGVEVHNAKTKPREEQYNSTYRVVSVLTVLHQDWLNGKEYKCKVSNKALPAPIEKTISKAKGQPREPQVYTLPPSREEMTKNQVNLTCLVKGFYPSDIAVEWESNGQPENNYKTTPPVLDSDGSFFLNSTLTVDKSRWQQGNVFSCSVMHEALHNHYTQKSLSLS
T3 sequence (Q9Y336 18-463 limits assumed): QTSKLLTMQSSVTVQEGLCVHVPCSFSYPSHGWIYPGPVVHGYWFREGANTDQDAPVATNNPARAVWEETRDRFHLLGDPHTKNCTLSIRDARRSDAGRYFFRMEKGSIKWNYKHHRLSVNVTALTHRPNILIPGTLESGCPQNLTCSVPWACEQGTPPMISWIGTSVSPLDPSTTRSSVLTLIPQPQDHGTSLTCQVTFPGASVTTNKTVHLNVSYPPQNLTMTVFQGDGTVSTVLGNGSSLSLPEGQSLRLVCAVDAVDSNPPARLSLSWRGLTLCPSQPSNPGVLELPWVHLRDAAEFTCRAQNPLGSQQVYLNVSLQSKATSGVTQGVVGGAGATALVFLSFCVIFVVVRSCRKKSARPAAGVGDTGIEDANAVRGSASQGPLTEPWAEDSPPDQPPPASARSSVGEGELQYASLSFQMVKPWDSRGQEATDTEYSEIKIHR

binding result [1]: binds
binding result [2]: no binding (tested: 5 µg/ml)
Kd [3]: 2.5 nM
koff [3]: 0.00053 s⁻¹
kon [3]: 210000 M⁻¹ s⁻¹
B1: comparative monoclonal antibody mAbA (WO 2017/153433), mouse-human chimera (antibody, human IgG1, kappa, V domains shown)
VH: QVQLQQPGAELVKPGSPVKLSCKASYFTFTSYWMHWVRQRPGQGLEWIGEINPSNGHTNYNEKFESKATLTVDRSSSTAYMQLSSLTSEDSAVFYCANGVESYDFDDALDYWGQGTSVTVSS
VL: DIQMTQTTSSLSASLGDRVTISCRASQDINNYLNWYQQKPDGTIKLLIYYTSRLHSGVPSRFSGSGSGTDYSLTINNLEQEDIATYFCQQGNTLPFTFGGGTKLEIKR

binding result [1]: binds
Kd [3]: 5.1 nM
koff [3]: 0.0012 s⁻¹
kon [3]: 230000 M⁻¹ s⁻¹
EC50 [4]: 0.4 nM
fold stronger binding than 5C6 [5]: ~10 fold
B2: monoclonal antibody 224B1 (rabbit) (antibody, V domains shown)
VH: QSVEESGGRLVTPETPLTLTCTASGFSLSSYYMSWVRQAPGKGLEWIGYIWTDGSAHYATWTKGRFTISKTSSTTVDLKITSPTTEDTATYFCVRANSGSHTYIEKFNLWGPGTLVTVSS
VL: DVVMTQTPASVEATVGGSVTIKCQASPSINDELSWYQQKPGQRPTLLIYEASALESGVPSRFKGSGSGTEFTLTIGDLECADAATYYCQCTYGSRSDISYGNTFGGGTEVVVKG
